According to publication PMC10449828, “Fanconi anemia associated protein 20 (FAAP20) plays an essential role in homology-directed repair of DNA double-strand breaks”:

How the values were obtained:
FAAP20 = target: T1, FAAP20 (human, UniProt Q6NZ36 1-180); assay: EMSA; FAAP20 9-24 nM; EMSA: 125 mM Tris pH 7.5, 5 mM EDTA, 6% glycerol, 1 mM DTT, 100 mM NaCl, 1 nM substrate, RT 45 min; 4% native PAGE in 1x TAE; conditions: protein: recombinant; tags: C-terminal 6xHis; label: 32P 5' (T4 PNK); single strand
T1 sequence: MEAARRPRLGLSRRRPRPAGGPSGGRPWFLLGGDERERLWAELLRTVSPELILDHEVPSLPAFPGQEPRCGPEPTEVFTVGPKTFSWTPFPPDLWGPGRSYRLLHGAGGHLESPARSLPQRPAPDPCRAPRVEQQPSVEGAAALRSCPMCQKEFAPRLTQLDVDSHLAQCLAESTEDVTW

FANCA;FAAP20 [1] = target: T2, FANCA;FAAP20 (human;human, UniProt O15360;Q6NZ36 1-1455;1-180, |); assay: EMSA; FANCA 10 nM, FAAP20 9-24 nM; FAAP20 increases FANCA affinity; EMSA: 125 mM Tris pH 7.5, 5 mM EDTA, 6% glycerol, 1 mM DTT, 100 mM NaCl, 1 nM substrate, RT 45 min; 4% native PAGE in 1x TAE; conditions: protein: recombinant;recombinant; tags: none (native FANCA);C-terminal 6xHis; copies: 1;1; label: 32P 5' (T4 PNK); single strand
T2 sequence (O15360 whole entry, one chain of several): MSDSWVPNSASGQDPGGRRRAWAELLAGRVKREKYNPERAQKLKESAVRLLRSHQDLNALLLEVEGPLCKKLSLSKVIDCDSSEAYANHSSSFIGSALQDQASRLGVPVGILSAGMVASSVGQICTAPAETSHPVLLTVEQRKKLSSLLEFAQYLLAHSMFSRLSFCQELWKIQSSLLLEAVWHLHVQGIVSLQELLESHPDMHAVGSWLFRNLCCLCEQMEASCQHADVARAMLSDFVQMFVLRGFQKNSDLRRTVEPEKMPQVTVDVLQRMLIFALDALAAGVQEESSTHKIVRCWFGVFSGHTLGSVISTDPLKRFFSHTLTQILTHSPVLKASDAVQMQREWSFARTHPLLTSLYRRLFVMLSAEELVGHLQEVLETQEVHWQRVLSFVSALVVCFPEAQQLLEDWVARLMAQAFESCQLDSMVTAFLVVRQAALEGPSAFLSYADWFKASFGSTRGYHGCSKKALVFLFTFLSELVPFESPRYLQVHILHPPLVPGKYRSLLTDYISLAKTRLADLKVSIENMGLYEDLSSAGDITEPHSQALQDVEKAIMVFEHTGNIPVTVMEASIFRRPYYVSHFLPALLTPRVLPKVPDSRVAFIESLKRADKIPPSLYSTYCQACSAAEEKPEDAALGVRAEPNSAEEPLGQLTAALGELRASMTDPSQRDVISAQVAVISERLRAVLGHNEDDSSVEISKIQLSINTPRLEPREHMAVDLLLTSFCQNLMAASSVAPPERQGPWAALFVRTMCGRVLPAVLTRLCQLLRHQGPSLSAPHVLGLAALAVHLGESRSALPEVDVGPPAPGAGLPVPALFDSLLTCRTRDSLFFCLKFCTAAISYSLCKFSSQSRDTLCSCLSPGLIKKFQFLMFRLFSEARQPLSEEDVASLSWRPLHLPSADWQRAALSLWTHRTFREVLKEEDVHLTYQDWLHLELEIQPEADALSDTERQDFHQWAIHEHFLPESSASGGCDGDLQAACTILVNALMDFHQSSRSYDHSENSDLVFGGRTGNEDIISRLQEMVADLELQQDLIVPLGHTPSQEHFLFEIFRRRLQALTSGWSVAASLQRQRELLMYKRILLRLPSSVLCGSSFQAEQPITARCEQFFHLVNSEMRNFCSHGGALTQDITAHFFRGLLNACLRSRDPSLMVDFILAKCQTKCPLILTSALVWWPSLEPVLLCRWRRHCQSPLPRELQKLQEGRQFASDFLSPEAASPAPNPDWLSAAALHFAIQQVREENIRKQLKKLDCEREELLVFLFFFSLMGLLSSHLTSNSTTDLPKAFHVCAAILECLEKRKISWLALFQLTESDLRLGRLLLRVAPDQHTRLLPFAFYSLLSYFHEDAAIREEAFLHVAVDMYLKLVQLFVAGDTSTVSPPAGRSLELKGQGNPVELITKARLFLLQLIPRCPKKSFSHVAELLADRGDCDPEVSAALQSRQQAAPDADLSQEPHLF

FANCA;FANCG = FANCA;FANCG (human;human, UniProt O15360;O15287 1-1455;1-622, |); assay: EMSA; 10 nM each; higher affinity than FANCA alone; EMSA: 125 mM Tris pH 7.5, 5 mM EDTA, 6% glycerol, 1 mM DTT, 100 mM NaCl, 1 nM substrate, RT 45 min; 4% native PAGE in 1x TAE; conditions: protein: recombinant;recombinant; tags: none (native FANCA);N-terminal 6xHis; copies: 1;1; label: 32P 5' (T4 PNK); single strand
Chain of FANCA;FANCG (O15360 whole entry, chain 1 of 2): as the sequence (O15360 whole entry, one chain of several) above
Chain of FANCA;FANCG (O15287 whole entry, chain 2 of 2): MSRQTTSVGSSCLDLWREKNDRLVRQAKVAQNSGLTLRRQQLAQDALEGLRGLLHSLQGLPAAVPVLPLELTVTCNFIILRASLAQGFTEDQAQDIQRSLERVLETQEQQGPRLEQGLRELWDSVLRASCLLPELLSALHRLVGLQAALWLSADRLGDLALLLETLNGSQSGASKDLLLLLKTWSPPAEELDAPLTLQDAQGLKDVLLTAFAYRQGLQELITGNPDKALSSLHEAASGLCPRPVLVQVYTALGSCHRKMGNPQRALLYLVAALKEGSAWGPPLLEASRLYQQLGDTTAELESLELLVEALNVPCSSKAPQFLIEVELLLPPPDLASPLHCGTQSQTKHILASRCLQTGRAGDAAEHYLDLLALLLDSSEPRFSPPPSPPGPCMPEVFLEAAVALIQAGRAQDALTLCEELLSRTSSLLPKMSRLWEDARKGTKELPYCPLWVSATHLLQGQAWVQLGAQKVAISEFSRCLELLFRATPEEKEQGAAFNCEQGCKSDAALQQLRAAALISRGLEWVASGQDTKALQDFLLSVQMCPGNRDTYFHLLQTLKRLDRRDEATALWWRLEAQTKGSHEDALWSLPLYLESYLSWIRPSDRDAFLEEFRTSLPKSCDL

FANCA;FAAP20;FANCG = FANCA;FAAP20;FANCG (human;human;human, UniProt O15360;Q6NZ36;O15287 1-1455;1-180;1-622, ||); assay: EMSA; 10 nM each; slightly additive over FANCA+FANCG or FANCA+FAAP20; EMSA: 125 mM Tris pH 7.5, 5 mM EDTA, 6% glycerol, 1 mM DTT, 100 mM NaCl, 1 nM substrate, RT 45 min; 4% native PAGE in 1x TAE; conditions: protein: recombinant;recombinant;recombinant; tags: none (native FANCA);C-terminal 6xHis;N-terminal 6xHis; label: 32P 5' (T4 PNK); single strand
Chain of FANCA;FAAP20;FANCG (O15360 whole entry, chain 1 of 2): as the sequence (O15360 whole entry, one chain of several) above
Chain of FANCA;FAAP20;FANCG (O15287 whole entry, chain 3 of 2): as the sequence (O15287 whole entry, chain 2 of 2) above

FANCA;FAAP20 [2] = target: T2, FANCA;FAAP20; assay: EMSA; fixed suboptimal FANCA, FAAP20 titrated; binding stimulated; EMSA: 125 mM Tris pH 7.5, 5 mM EDTA, 6% glycerol, 1 mM DTT, 100 mM NaCl, 1 nM substrate, RT 45 min; 4% native PAGE in 1x TAE; conditions: protein: recombinant;recombinant; tags: none (native FANCA);C-terminal 6xHis; copies: 1;1; label: 32P 5' (T4 PNK); single strand
FANCA;FAAP20 [3] = target: T2, FANCA;FAAP20; assay: EMSA; FANCA 10 nM, FAAP20 9-24 nM; binding stimulated; EMSA: 125 mM Tris pH 7.5, 5 mM EDTA, 6% glycerol, 1 mM DTT, 100 mM NaCl, 1 nM substrate, RT 45 min; 4% native PAGE in 1x TAE; conditions: protein: recombinant;recombinant; tags: none (native FANCA);C-terminal 6xHis; copies: 1;1; label: 32P 5' (T4 PNK); fork, 25 bp duplex; unpaired 3' arm 30 nt (strand 1) and 5' arm 25 nt (strand 2); 1 nt 3' overhang on strand 2 as printed

B1: EMSA ssDNA 61-mer (ssDNA)
DNA: GACGCTGCCGAATTCTACCAGTGCCTTGCTAGGACATCTTTGCCCACCTGCAGGTTCACCC
binding result (FAAP20): no binding | binding result (FANCA;FAAP20 [1]): binds | binding result (FANCA;FANCG): binds | binding result (FANCA;FAAP20;FANCG): binds

B2: EMSA ssRNA 61-mer (ssRNA)
RNA: GACGCUGCCGAAUUCUACCAGUGCCUUGCUAGGACAUCUUUGCCCACCUGCAGGUUCACCC
binding result (FANCA;FAAP20 [2]): binds

B3: splayed arm DNA (mixed)
DNA 1: GTCCTCCACCGCAGCCCACCTGCCCACCTTGTTGCTGATCTCAATCAGCTCTGGA
DNA 2: GCTGGCACGGTCGGATTTAAAGTTAGGGCAGGTGGGCTGCGGTGGAGGACG
binding result (FANCA;FAAP20 [3]): binds
